T1: human SIAH1-SBD (91–282) (human, UniProt Q8IUQ4-1 91-282)
T1 sequence (looked up): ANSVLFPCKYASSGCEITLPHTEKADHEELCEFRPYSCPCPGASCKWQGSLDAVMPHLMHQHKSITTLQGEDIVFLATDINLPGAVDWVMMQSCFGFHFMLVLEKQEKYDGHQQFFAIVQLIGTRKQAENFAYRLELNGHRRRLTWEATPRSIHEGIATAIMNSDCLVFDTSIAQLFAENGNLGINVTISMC


Experiments:
[1] = target: T1, human SIAH1-SBD (91–282); assay: ITC
[2] = target: T1, human SIAH1-SBD (91–282); assay: pull-down

Kd [1]	binding result [2]	Binder
5.6 µM	–	YRVPKEVRVEPQKFAEELIH (peptide, UniProt O15169-1 375-394, looked up) [20-residue human AXIN1 peptide (residues 375–394)]
–	binds	GST-tagged AXIN1 (353–436) (domain or fragment, human, UniProt O15169-1 353-436, looked up) RREMQESVQVNGRVPLPHIPRTYRVPKEVRVEPQKFAEELIHRLEAVQRTREAEEKLEERLKRVRMEEEGEDGDPSSGPPGPCH

Source: paper PMC5458757 (Genes & Development, 2017)
